Positions count from the first letter of the chain named.
B1: #9104v-L11 (antibody, human IgG4 S228P, lambda, V domains shown)
VH: EVQLLESGGGLVQPGGSLRLSCAASGFTFSNYYMSWVRQAPGKGLEWVSGIYYGSGNIYYADSVKGRFTISRDNSKNTLYLQMNSLRAEDTAVYYCARDTPGFDYWGQGTLVTVSS
VL: QSVLTQPPSASGTPGQRVTISCTGSSSNIGNNAVNWYQQLPGTAPKLLIYYDIFQPSGVPDRFSGSKSGTSASLAISGLRSEDEADYYCGAWDYSLSAYVFGGGTKLTVLG
notes: Full-length IgG, lambda
B2: #9104v-L12 (antibody, human IgG4 S228P, lambda, V domains shown)
VH: B1 VH
VL: B1 VL with Q55R, S57D
notes: Full-length IgG, lambda
B3: #9104v-L15 (antibody, human IgG4 S228P, lambda, V domains shown)
VH: B1 VH
VL: B1 VL with F54H, Q55R, S57Y
notes: Full-length IgG, lambda
B4: #9104v-L19 (antibody, human IgG4 S228P, lambda, V domains shown)
VH: B1 VH
VL: B1 VL with I53L, Q55R
notes: Full-length IgG, lambda
B5: #9104v-L20 (antibody, human IgG4 S228P, lambda, V domains shown)
VH: B1 VH
VL: B1 VL with I53M, Q55R, S57G
notes: Full-length IgG, lambda
B6: #9104v-L21 (antibody, human IgG4 S228P, lambda, V domains shown)
VH: B1 VH
VL: B1 VL with I53M, Q55R, S57N
notes: Full-length IgG, lambda
B7: #9104v-L23 (antibody, human IgG4 S228P, lambda, V domains shown)
VH: B1 VH
VL: B1 VL with I53Q, Q55R
notes: Full-length IgG, lambda
B8: #9104v-L25 (antibody, human IgG4 S228P, lambda, V domains shown)
VH: B1 VH
VL: B1 VL with I53S, Q55P, P56A
notes: Full-length IgG, lambda
B9: #9104v-L27 (antibody, human IgG4 S228P, lambda, V domains shown)
VH: B1 VH
VL: B1 VL with I53S, Q55R, P56Q
notes: Full-length IgG, lambda
B10: #9104v-L28 (antibody, human IgG4 S228P, lambda, V domains shown)
VH: B1 VH
VL: B1 VL with I53S, Q55R, P56R
notes: Full-length IgG, lambda
B11: #9104v-L29 (antibody, human IgG4 S228P, lambda, V domains shown)
VH: B1 VH
VL: B1 VL with I53S, Q55R, P56S, S57T
notes: Full-length IgG, lambda
B12: #9104v-L32 (antibody, human IgG4 S228P, lambda, V domains shown)
VH: B1 VH
VL: B1 VL with I53S, F54Y, Q55L
notes: Full-length IgG, lambda
B13: #9104v-L33 (antibody, human IgG4 S228P, lambda, V domains shown)
VH: B1 VH
VL: B1 VL with I53S, F54Y, Q55P, S57Y
notes: Full-length IgG, lambda
B14: #9104v-L34 (antibody, human IgG4 S228P, lambda, V domains shown)
VH: B1 VH
VL: B1 VL with I53S, F54Y, P56A
notes: Full-length IgG, lambda
B15: #9104v-L37 (antibody, human IgG4 S228P, lambda, V domains shown)
VH: B1 VH
VL: B1 VL with I53S, F54Y, Q55R, P56A
notes: Full-length IgG, lambda
B16: #9104v-L38 (antibody, human IgG4 S228P, lambda, V domains shown)
VH: B1 VH
VL: B1 VL with I53S, F54Y, Q55R, S57F
notes: Full-length IgG, lambda
B17: #9104v-L39 (antibody, human IgG4 S228P, lambda, V domains shown)
VH: B1 VH
VL: B1 VL with I53S, F54Y, Q55R, S57G
notes: Full-length IgG, lambda
B18: #9104v-L46 (antibody, human IgG4 S228P, lambda, V domains shown)
VH: B1 VH
VL: B1 VL with I53S, F54Y, Q55R, P56S, S57W
notes: Full-length IgG, lambda
B19: #9104v-L47 (antibody, human IgG4 S228P, lambda, V domains shown)
VH: B1 VH
VL: B1 VL with I53S, F54Y, Q55T
notes: Full-length IgG, lambda
B20: #9104v-L49 (antibody, human IgG4 S228P, lambda, V domains shown)
VH: B1 VH
VL: B1 VL with I53T, Q55R, S57T
notes: Full-length IgG, lambda
B21: #9104v-L52 (antibody, human IgG4 S228P, lambda, V domains shown)
VH: B1 VH
VL: B1 VL with I53V, F54H, Q55R, S57R
notes: Full-length IgG, lambda
B22: #9104v-L55 (antibody, human IgG4 S228P, lambda, V domains shown)
VH: B1 VH
VL: B1 VL with I53W, F54Y, Q55R, S57T
notes: Full-length IgG, lambda
B23: #9104v-L63 (antibody, human IgG4 S228P, lambda, V domains shown)
VH: B1 VH
VL: B1 VL with I53S, F54H, Q55R, S95W, S97G
notes: Full-length IgG, lambda
B24: #9104v-L64 (antibody, human IgG4 S228P, lambda, V domains shown)
VH: B1 VH
VL: B1 VL with I53Y, Q55S, P56H
notes: Full-length IgG, lambda
B25: #9104v-L65 (antibody, human IgG4 S228P, lambda, V domains shown)
VH: B1 VH
VL: B1 VL with I53Y, F54Y, P56S
notes: Full-length IgG, lambda
B26: #9104a-E2 (antibody, human IgG4 S228P, lambda, V domains shown)
VH: B1 VH with N57I, I58P, G66E
VL: B1 VL with I53Y, F54Y, P56S
notes: VH of #9104v-H11 with VL of #9104v-L65; full-length IgG, lambda
B27: #9104a-E3 (antibody, human IgG4 S228P, lambda, V domains shown)
VH: B1 VH with N57I, I58P, D62N
VL: B1 VL with I53Y, F54Y, P56S
notes: VH of #9104v-H13 with VL of #9104v-L65; full-length IgG, lambda
B28: #9104a-E4 (antibody, human IgG4 S228P, lambda, V domains shown)
VH: B1 VH with Q39R, N57T, I58P, D62A
VL: B1 VL with I53Y, F54Y, P56S
notes: VH of #9104v-H17 with VL of #9104v-L65; full-length IgG, lambda
B29: #9104a-E5 (antibody, human IgG4 S228P, lambda, V domains shown)
VH: B1 VH with N57V, I58P
VL: B1 VL with I53Y, F54Y, P56S
notes: VH of #9104v-H19 with VL of #9104v-L65; full-length IgG, lambda
B30: #9104a-E6 (antibody, human IgG4 S228P, lambda, V domains shown)
VH: B1 VH with I51T, G54D, N57Y, I58V
VL: B1 VL with I53Y, F54Y, P56S
notes: VH of #9104v-H27 with VL of #9104v-L65; full-length IgG, lambda
B31: #9104a-E7 (antibody, human IgG4 S228P, lambda, V domains shown)
VH: B1 VH with I51V, N57T, I58P
VL: B1 VL with I53Y, F54Y, P56S
notes: VH of #9104v-H31 with VL of #9104v-L65; full-length IgG, lambda
B32: #9104a-E8 (antibody, human IgG4 S228P, lambda, V domains shown)
VH: B1 VH with I51V, G54P, I58P
VL: B1 VL with I53Y, F54Y, P56S
notes: VH of #9104v-H33 with VL of #9104v-L65; full-length IgG, lambda

Target: T1, recombinant human ASM protein (human, UniProt P17405 47-630)
T1 construct: Recombinant human ASM in solution; also called acid sphingomyelinase (ASM) protein
T1 sequence: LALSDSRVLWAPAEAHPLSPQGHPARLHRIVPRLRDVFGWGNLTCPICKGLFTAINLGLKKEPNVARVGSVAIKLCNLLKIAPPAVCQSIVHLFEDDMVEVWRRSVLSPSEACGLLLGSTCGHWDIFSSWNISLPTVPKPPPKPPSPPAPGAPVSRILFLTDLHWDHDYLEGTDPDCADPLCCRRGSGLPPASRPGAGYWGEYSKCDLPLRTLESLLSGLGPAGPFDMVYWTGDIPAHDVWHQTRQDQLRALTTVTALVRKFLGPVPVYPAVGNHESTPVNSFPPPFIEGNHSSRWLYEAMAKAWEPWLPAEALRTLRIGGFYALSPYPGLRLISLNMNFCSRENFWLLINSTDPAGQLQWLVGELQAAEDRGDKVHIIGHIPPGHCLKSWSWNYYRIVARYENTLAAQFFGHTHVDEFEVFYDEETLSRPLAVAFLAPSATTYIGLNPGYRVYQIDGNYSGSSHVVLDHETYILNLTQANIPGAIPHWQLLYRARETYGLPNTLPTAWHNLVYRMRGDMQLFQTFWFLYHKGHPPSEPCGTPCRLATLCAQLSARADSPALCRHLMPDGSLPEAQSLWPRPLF
Assay: BLI (Octet), antibody on AHC sensor
Procedure: (§1) The binding affinity, to the ASM protein, of the produced antibodies specifically binding to the ASM protein and the interactive dynamics therebetween were measured using an Octet® QK384 system (Pall Life Sciences).
(§2) First, an antibody specifically binding to the ASM protein produced in Example 1 was captured using an anti-human IgG Fc capture (AHC) biosensor, and 1.25, 2.5, 5, 10, or 20 nM recombinant human ASM protein solution was added thereto. […] The association constant (Kₐ), dissociation constant (Kd), and equilibrium dissociation constant (KD) for each antibody were determined using Octet® analysis software (Pall Life® Sciences). As a result, the binding affinities, to the human ASM protein, of the antibodies with mutations in the heavy chain CDR regions of the antibody #9104 as depicted in Table 1 are shown in Table 5, and the binding affinities, to the human ASM protein, of the antibodies with mutations of the light chain CDR regions in the antibody #9104 as depicted in Table 2 are shown in Table 6.

Row | Binder | Kd | koff | kon
1 | B1 | 0.768 nM | 0.000199 s⁻¹ | 259000 M⁻¹ s⁻¹
2 | B2 | 0.718 nM | 0.000159 s⁻¹ | 221000 M⁻¹ s⁻¹
3 | B3 | 0.992 nM | 0.000273 s⁻¹ | 275000 M⁻¹ s⁻¹
4 | B4 | 1.03 nM | 0.000238 s⁻¹ | 231000 M⁻¹ s⁻¹
5 | B5 | 0.658 nM | 0.000162 s⁻¹ | 247000 M⁻¹ s⁻¹
6 | B6 | 0.556 nM | 0.000135 s⁻¹ | 243000 M⁻¹ s⁻¹
7 | B7 | 0.817 nM | 0.000185 s⁻¹ | 226000 M⁻¹ s⁻¹
8 | B8 | 0.882 nM | 0.000259 s⁻¹ | 294000 M⁻¹ s⁻¹
9 | B9 | 1.02 nM | 0.000355 s⁻¹ | 348000 M⁻¹ s⁻¹
10 | B10 | 1.05 nM | 0.000254 s⁻¹ | 241000 M⁻¹ s⁻¹
11 | B11 | 1.07 nM | 0.000292 s⁻¹ | 272000 M⁻¹ s⁻¹
12 | B12 | 1.37 nM | 0.000439 s⁻¹ | 321000 M⁻¹ s⁻¹
13 | B13 | 1.27 nM | 0.000289 s⁻¹ | 227000 M⁻¹ s⁻¹
14 | B14 | 1.61 nM | 0.000493 s⁻¹ | 306000 M⁻¹ s⁻¹
15 | B15 | 1.27 nM | 0.000327 s⁻¹ | 259000 M⁻¹ s⁻¹
16 | B16 | 1.8 nM | 0.000343 s⁻¹ | 191000 M⁻¹ s⁻¹
17 | B17 | 1.52 nM | 0.000443 s⁻¹ | 291000 M⁻¹ s⁻¹
18 | B18 | 0.88 nM | 0.000258 s⁻¹ | 293000 M⁻¹ s⁻¹
19 | B19 | 1.41 nM | 0.000415 s⁻¹ | 294000 M⁻¹ s⁻¹
20 | B20 | 0.785 nM | 0.000225 s⁻¹ | 286000 M⁻¹ s⁻¹
21 | B21 | 0.982 nM | 0.000264 s⁻¹ | 269000 M⁻¹ s⁻¹
22 | B22 | 0.879 nM | 0.00017 s⁻¹ | 193000 M⁻¹ s⁻¹
23 | B23 | 1.41 nM | 0.000255 s⁻¹ | 181000 M⁻¹ s⁻¹
24 | B24 | 0.505 nM | 0.000193 s⁻¹ | 383000 M⁻¹ s⁻¹
25 | B25 | 0.532 nM | 0.000192 s⁻¹ | 360000 M⁻¹ s⁻¹

Target: T1, recombinant human ASM protein
Assay: BLI (Octet), antibody on AHC sensor
Remark: another data set of the same source
Procedure: as §1, §2
After the small-scale expression in the ExpiCHO cell line as described above, the binding affinity to the human ASM protein was investigated as described in Experimental Example 1. Specifically, the antibody produced by a combination of #9104v-H33 heavy chain variable region and #9104v-L23 light chain variable region was not expressed and thus excluded in the analysis of binding affinity to ASM protein.

Row | Binder | Kd | koff | kon
26 | B26 | 0.212 nM | 4.27e-05 s⁻¹ | 202000 M⁻¹ s⁻¹
27 | B27 | 0.28 nM | 5.74e-05 s⁻¹ | 205000 M⁻¹ s⁻¹
28 | B28 | 0.197 nM | 4.15e-05 s⁻¹ | 210000 M⁻¹ s⁻¹
29 | B29 | 0.273 nM | 6.36e-05 s⁻¹ | 234000 M⁻¹ s⁻¹
30 | B30 | 1.19 nM | 7.77e-05 s⁻¹ | 65500 M⁻¹ s⁻¹
31 | B31 | 0.211 nM | 4.59e-05 s⁻¹ | 218000 M⁻¹ s⁻¹
32 | B32 | 0.38 nM | 5.66e-05 s⁻¹ | 149000 M⁻¹ s⁻¹

Source: patent US20260201064A1 (ISU ABXIS, published 2026)
